In the assay the target is Rabbit skeletal muscle LatB-actin (rabbit, UniProt P68135 1-377). Put plainly: BLI. Background: Biolayer interferometry detects binding as a change in optical thickness at a sensor tip.

B1: GST-ArhGAP12 ΔNΔP (568-791) (domain or fragment)
chain: QKKTKKNLKKFLTRRPTLQAVREKGYIKDQVFGSNLANLCQRENGTVPKFVKLCIEHVEEHGLDVDGIYRVSGNLAVIQKLRFAVNHDEKLDLNDSKWEDIHVITGALKMFFRELPEPLFTFNHFNDFVNAIKQEPRQRVTAVKDLIRQLPKPNQDTMQILFRHLKRVIENGEKNRMTYQSIAIVFGPTLLKPERETGNIAVHTVYQNQIVELILLELSTVFGR
For orientation: Kd means the equilibrium constant for the complex coming apart. Read a low Kd as a tighter complex. In turn, B1 showed a Kd of 40.3 nM.

Values taken from article PMC6960015 (Nature cell biology, 2019).
